Measurements reported in paper PMC5361862, “Insights into ClpXP proteolysis: heterooligomerization and partial deactivation enhance chaperone affinity and substrate turnover in Listeria monocytogenes” (Chemical Science, 2016).
One block for each molecule: values may come before it. Where a SMILES comes first, the peptide text is derived from it. [ ]: non-standard residue; d: D form. The star is where a group is joined. Phe(3,4-Cl2) = N[C@@H](Cc1ccc(Cl)c(Cl)c1)C(=O)O; hArg = N=C(N)NCCCC[C@H](N)C(=O)O; Aoc(2) = CCCCCC[C@H](N)C(=O)O; CH2Cl = ClC*

Legend:
[1] = target: LmClpP2 treated with beta-lactone D3 (Listeria monocytogenes); test: not stated; oligomeric state of LmClpP2 after treatment with inhibitors (E2, D3, Aoc-CMK, Leu-CMK), Fig. S4; method and conditions are in the ESI
LmClpXP2 [2] = target: T1, LmClpXP2 (Listeria monocytogenes, UniProt Q9RQI6); test: proteolysis of GFP-SsrA, fluorescence; assay type: biochemical
T1 construct: gene clpP; ClpP2 homotetradecamer (LmClpP14) with hexameric chaperone LmClpX6

[3] = target: LmClpP2 treated with Leu-CMK (Listeria monocytogenes); test: not stated; oligomeric state of LmClpP2 after treatment with inhibitors (E2, D3, Aoc-CMK, Leu-CMK), Fig. S4; method and conditions are in the ESI
[4] = target: Listeria monocytogenes ClpX chaperone (LmClpX) (Listeria monocytogenes) (UniProt Q8Y7K9)
[5] = target: Listeria monocytogenes ClpX chaperone (LmClpX) (Listeria monocytogenes) (UniProt Q8Y7K9); remark: listed apart in the source
[6] = target: Listeria monocytogenes ClpP2 homotetradecamer (LmClpP2), unmodified (Listeria monocytogenes); test: not stated; oligomeric state of LmClpP2 after treatment with inhibitors (E2, D3, Aoc-CMK, Leu-CMK), Fig. S4; method and conditions are in the ESI
[7] = target: Listeria monocytogenes ClpX chaperone (LmClpX) (Listeria monocytogenes) (UniProt Q8Y7K9); remark: listed apart in the source
[8] = target: partially Aoc-CMK-modified LmClpP2 homotetradecamer (Listeria monocytogenes); test: not stated; oligomeric state of LmClpP2 after treatment with inhibitors (E2, D3, Aoc-CMK, Leu-CMK), Fig. S4; method and conditions are in the ESI
LmClpXP2 [9] = target: T1, LmClpXP2; test: proteolysis of GFP-SsrA, fluorescence; assay type: biochemical; conditions: with LmClpX; inhibitor 1, 10, 100 μM; covalent; inhibition
LmClpP2 = target: T2, LmClpP2 (Listeria monocytogenes, UniProt Q9RQI6); test: peptidase assay, Ac-Ala-hArg-Leu-ACC hydrolysis; assay type: biochemical; conditions: 1 μM ClpP; 200 μM substrate; inhibitor 1, 10, 100 μM; no ClpX; covalent
T2 construct: gene clpP; purified homotetradecamer; construct details in ESI

Molecule: CCCCCC[C@H](NC(=O)[C@H](CCCCNC(=N)N)NC(=O)[C@H](Cc1ccc(Cl)c(Cl)c1)NC(C)=O)C(=O)CCl [Aoc-CMK] (Ac-[Phe(3,4-Cl2)]-[hArg]-[Aoc(2)]-CH2Cl)
- activity at 5 µM (LmClpXP2 [2]): 162%

Molecule: LmClpP2 treated with Leu-CMK (enzyme)
- stoichiometry N [3]: 14

Molecule: LmClpP2(S98A) homocomplex (enzyme)
- K app from unfolding activity on GFP-LmSsrA (0.125 uM) with 0.4 uM LmClpX6 and varying concentrations of LmClpP14 (S98A homocomplex) [5]: 2360 nM

Molecule: LmClpP1/2 heterocomplex containing Ser98 to Ala mutations
- K app from unfolding activity on GFP-LmSsrA (0.125 uM) with 0.4 uM LmClpX6 and varying concentrations of LmClpP14 (S98A heterocomplex) [5]: 224 nM

Molecule: COC(=O)c1ccc(OC(=O)CCc2cc(OC)c(OC)c(OC)c2)cc1 [AV170]
- % activity (LmClpXP2 [9]): AV170 turned out to be the most effective inhibitor against each complex
- % activity (LmClpP2): AV170 and both CMK inhibitors were the most effective against LmClpP2

More lines, now with the values ahead:

- stoichiometry N [1]: 14
Molecule: LmClpP2 treated with beta-lactone D3 (enzyme)

- K app from protease activity of LmClpXP1/2 at varying concentrations of LmClpP1/2 (LmClpP14) [4]: 85 nM
Molecule: LmClpP1/2 heterooligomeric complex, wild type (LmClpP1^wt/2^wt)

- stoichiometry N [6]: 14
Molecule: Listeria monocytogenes ClpP2 homotetradecamer (LmClpP2), unmodified (enzyme)

- protease activity (GFP-SsrA degradation) of LmClpXP2 at incremental Aoc-CMK concentrations, DMSO control as 100%; strongest at 5 uM Aoc-CMK, abolished at 50 uM [7]: 162%
- stoichiometry N [8]: 14
Molecule: partially Aoc-CMK-modified LmClpP2 homotetradecamer (enzyme)
